Assay results published in the supplement of paper PMC10126150.
± gives the standard deviation of the averaged measurements.

Test system: ATP
Experiment: switch fluorescence ratio, 500 uM ATP over buffer (Cy3 cluster intensity, sum of 5 cycles each) (fold (ratio)); higher = stronger signal-on switching upon ATP binding; sequences stand for … in TCGTCGGCAGCGTCAGATGTGTATAAGAGACAGTTTTTTTTTTTTTTTTTTTTTTTTT…TC
Details: aptamer strand: ATP DNA aptamer (quencher-CACCTGGGGGAGTATTGCGGAGGAAGG + anchor), 100 nM annealed; ATP concentration: 500 uM
In short: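 Cy3-labelled switching-strand clusters on a modified Illumina MiSeq flow-cell were annealed to 100 nM quencher-labelled ATP aptamer, imaged in selection buffer, then imaged after 15 min with 500 uM ATP at 22 °C. Five buffer/ATP cycles ran, with NaOH stripping and re-annealing between them. The fluorescence ratio is summed target-cycle over summed buffer-cycle Cy3 intensity per cluster, averaged per switch-domain sequence. Clusters outside 100-1000 RFU were excluded.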
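Note: ATP exposure 15 min at 22 °C before imaging.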

| Sequence | switch fluorescence ratio |
| --- | --- |
| AAGGTAGAAT | 0.986 ± 0.013 |
| CGGGACACGT | 0.9677 ± 0.0063 |
| GCTTATTTAA | 0.99 ± 0.021 |
| CTAATCGCTG | 1.05 ± 0.034 |
| CGTTTCAAGG | 0.975 ± 0.016 |
| GGGGTGTTGC | 0.999 ± 0.056 |
| GATTTACATA | 1.01 ± 0.019 |
| TAAGGAGAAT | 0.9676 ± 0.0046 |
| ATTAGGGGGC | 1.04 ± 0.061 |
| AATAAGTGTT | 0.9792 ± 0.008 |
| GGTGCTGGGG | 1.01 ± 0.019 |
| TGTGATTTGA | 0.9763 ± 0.0026 |
| TCTAAGACGT | 0.957 ± 0.018 |
| GGGGTAGAAC | 0.992 ± 0.028 |
| GGCGGGTGGG | 1.03 ± 0.089 |
| TTTTTAATCT | 0.9902 ± 0.0083 |
| CAGTAATATT | 1.06 ± 0.017 |
| TAGGTCCTTG | 0.9851 ± 0.0061 |
| TCTATTCCCT | 1.02 ± 0.027 |
| CCGGGAAAGC | 1.18 ± 0.25 |
| CTCGGGGGTT | 1.06 ± 0.08 |
| TTACTTTCCT | 1.12 ± 0.086 |
| GGGTAGGGTG | 1.04 ± 0.055 |

| Sequence | switch fluorescence ratio |
| --- | --- |
| ATTCTTGAGA | 0.988 ± 0.034 |
| AATGAATCGT | 1 ± 0.015 |
| TTGGGCGGGT | 0.994 ± 0.041 |
| CCATCATAGA | 0.9887 ± 0.0061 |
| AATAAAAAAC | 1.05 ± 0.078 |
| GACAAATCTG | 1.04 ± 0.043 |
| TAGTAGATTA | 0.982 ± 0.012 |
| TTGTGTTTGG | 0.992 ± 0.014 |
| TCAAAGGGCG | 0.99 ± 0.049 |
| ACTGGGAGGC | 1 ± 0.096 |
| GTTTGCAAGT | 1.011 ± 0.0072 |
| TTAGCATTTA | 1.03 ± 0.013 |
| ATATGCTCAC | 1.05 ± 0.03 |
| GTTAAATGGT | 1 ± 0.031 |
| AGGGGGGCCT | 0.989 ± 0.087 |
| AGGGTATATC | 1.05 ± 0.03 |
| TAGTATGTGT | 0.9576 ± 0.0043 |
| GTTGTAGTCT | 1.02 ± 0.023 |
| GCTGAGGGTT | 0.9552 ± 0.006 |
| TTTTGTGGTC | 1.02 ± 0.017 |
| CATATTTCGG | 0.995 ± 0.03 |
| TATAAGGGGA | 1 ± 0.039 |
| ATTTAAGGGG | 0.9949 ± 0.0092 |

| Sequence | switch fluorescence ratio |
| --- | --- |
| GGAGGACGGG | 1 ± 0.027 |
| CGATACACGT | 1.04 ± 0.029 |
| TATTTTGGCG | 0.986 ± 0.025 |
| TGAGGGCGTT | 0.995 ± 0.031 |
| CAAATCCTAT | 1.01 ± 0.013 |
| TATATAAAGA | 1.03 ± 0.035 |
| GGAGACAGTT | 0.971 ± 0.024 |
| TTAACCCGCC | 1.16 ± 0.14 |
| GGCACTATCC | 1.09 ± 0.07 |
| AAGCGGGGAC | 1.07 ± 0.013 |
| GTTGGGGGAC | 1.09 ± 0.086 |
| TTAACGTGTG | 0.975 ± 0.029 |
| GGGGTTGTTG | 0.988 ± 0.035 |
| ATAAGTGGGA | 0.986 ± 0.076 |
| GATTTCACTC | 1 ± 0.026 |
| GGGACTTCAA | 1 ± 0.039 |
| TGGCAGTGGT | 0.993 ± 0.03 |
| TTAAAGCACG | 1.07 ± 0.023 |
| GATGTCTATC | 1.01 ± 0.011 |
| TGCCTCGGGG | 1.042 ± 0.0049 |
| TCTGTGTAGC | 1 ± 0.027 |
| TGTTCGACCG | 1.012 ± 0.01 |
| CGATGTTTAG | 0.986 ± 0.019 |

| Sequence | switch fluorescence ratio |
| --- | --- |
| TTTCCATTAT | 1.01 ± 0.058 |
| ATGGTAAACC | 1.16 ± 0.066 |
| AGATTCAGAA | 0.947 ± 0.037 |
| TTTATTCTTT | 1 ± 0.021 |
| ATGGGTGGTT | 0.995 ± 0.032 |
| ATCACTCGTA | 1.03 ± 0.043 |
| CGTTGGGAAG | 0.9779 ± 0.0087 |
| GAGGGCTCTT | 1.05 ± 0.029 |
| TCCGTGGGGG | 1.09 ± 0.14 |
| GGGAACTGGG | 1.04 ± 0.049 |
| CTGATTGGGC | 1 ± 0.013 |
| GCAGGGTCTG | 1.02 ± 0.083 |
| AATAGGGTGT | 1.07 ± 0.046 |
| TGGGACATGG | 0.995 ± 0.031 |
| TTGTAATTGC | 1.29 ± 0.34 |
| TCTGGTTGAG | 1.02 ± 0.019 |
| TTATTTAGCA | 0.987 ± 0.038 |
| GTTGGAGGGA | 1.01 ± 0.032 |
| ATTGCAGTTG | 0.954 ± 0.013 |
| CGTGAAATGT | 0.9863 ± 0.0075 |
| TTTAAATCTC | 0.963 ± 0.014 |
| ATGGGTATGT | 1.01 ± 0.043 |
| CGGGGATACG | 1.01 ± 0.048 |

| Sequence | switch fluorescence ratio |
| --- | --- |
| CCCCAGGCAT | 2.68 ± 0.5 |
| GAATATGTGG | 1 ± 0.013 |
| TGAATTTGTT | 0.995 ± 0.038 |
| GAGCTTTTTT | 0.9986 ± 0.0034 |
| GGTCTAATGG | 0.998 ± 0.051 |
| AGAGCTATAA | 1.254 ± 0.0015 |
| GGGAATACTT | 1 ± 0.038 |
| GGGGGAGAAC | 1.026 ± 0.0019 |
| GTTCCGGGGA | 1.02 ± 0.016 |
| TTGGGTACGG | 1.03 ± 0.016 |
| TGCTGTAAGG | 1 ± 0.036 |
| ATCGGGTGTG | 0.9871 ± 0.0015 |
| AGCCCGTTTG | 0.964 ± 0.053 |
| TCTTTATAAA | 1.02 ± 0.038 |
| GGCTGAGGGT | 1 ± 0.016 |
| ATAAATGCGT | 1.002 ± 0.0031 |
| AGTGTGGGGC | 1.03 ± 0.0097 |
| TAGGAAGGGT | 0.997 ± 0.028 |
| CTTCTCGGCG | 1.08 ± 0.053 |
| ACATACTGCA | 1.29 ± 0.14 |
| CCAGTATATT | 1.02 ± 0.043 |
| TCGGTCAGTT | 0.971 ± 0.012 |
| GTTTGTTAAT | 1.007 ± 0.0044 |

| Sequence | switch fluorescence ratio |
| --- | --- |
| ATTCAATCCA | 0.989 ± 0.012 |
| ACTACGTACA | 1.68 ± 0.024 |
| GGGGGAGCAG | 0.9812 ± 0.0084 |
| AAGTTACTGT | 1.126 ± 0.006 |
| CCGTTGTCCA | 1.02 ± 0.032 |
| TTTTTAATGA | 1.02 ± 0.052 |
| GGACTGGGCT | 0.9806 ± 0.0081 |
| AGCGTAGAGC | 1.03 ± 0.04 |
| GTGAAGAAGG | 1.13 ± 0.2 |
| GTTGGGGTCA | 0.988 ± 0.011 |
| TCTGGGGGAG | 0.977 ± 0.029 |
| ATGGTGGCAT | 1.01 ± 0.012 |
| ATGTGAGGGG | 0.986 ± 0.029 |
| ATGTAGCATC | 1.56 ± 0.028 |
| GGTTAGATTG | 1.01 ± 0.006 |
| AAGGAGTTGC | 0.9733 ± 0.0062 |
| AATAGCAACT | 1.06 ± 0.029 |
| TAAATTGCGG | 0.966 ± 0.013 |
| TTTTGGGAAC | 1.02 ± 0.037 |
| ACCCGATCTT | 1 ± 0.053 |
| GGGCAAAATG | 0.981 ± 0.036 |
| TAAGGGAAAA | 0.977 ± 0.023 |
| ACTCGGGGGG | 0.991 ± 0.023 |

| Sequence | switch fluorescence ratio |
| --- | --- |
| AATGCACTCG | 1.04 ± 0.05 |
| TAAGTGGGGC | 0.957 ± 0.085 |
| GGGTGATTCC | 1.03 ± 0.014 |
| TCATGGGCTT | 1.01 ± 0.0059 |
| GGGTTGTGGA | 1 ± 0.029 |
| GTGATATAGG | 1.03 ± 0.041 |
| TTAGGGAGTC | 0.992 ± 0.037 |
| CATTTATGCG | 0.989 ± 0.018 |
| ATCGGCATTT | 1.027 ± 0.0084 |
| TGTAATGGTT | 1.004 ± 0.01 |
| CGAGCAGTTA | 1.19 ± 0.074 |
| GATGAGTTGA | 0.988 ± 0.02 |
| CGTTTGTCTA | 1.01 ± 0.051 |
| AATAATTTAA | 0.995 ± 0.021 |
| AGAATGGTAT | 1.07 ± 0.08 |
| GCCCGGGCGC | 1 ± 0.014 |
| TCGGTTGTG | 0.9644 ± 0.0092 |
| CTGTTTGTGC | 0.975 ± 0.013 |
| CGTGAAGGTG | 1.24 ± 0.074 |
